Here are results for six molecules from US20260015399A1 (Boehringer Ingelheim, published 2026).

*1 amine or outer side, *2 acyl side, *3 side chain or, on linkers, in order; H or OH if unused. Side-chain parts run from the residue outwards. The star is where a group is joined. C18 diacid = O=C(O)CCCCCCCCCCCCCCCCC(=O)*; γGlu = O=C(O)[C@H](CCC(=O)[*:2])N[*:1]; Isovaleryl = CC(C)CC(=O)*; Ahx = NCCCCCC(=O)O

First the molecules themselves.
T1: human NPY2 receptor (human, UniProt P49146 1-381)
T1 construct: whole, on cells; also called hNPY2-R; hNPY2R
T1 sequence (looked up): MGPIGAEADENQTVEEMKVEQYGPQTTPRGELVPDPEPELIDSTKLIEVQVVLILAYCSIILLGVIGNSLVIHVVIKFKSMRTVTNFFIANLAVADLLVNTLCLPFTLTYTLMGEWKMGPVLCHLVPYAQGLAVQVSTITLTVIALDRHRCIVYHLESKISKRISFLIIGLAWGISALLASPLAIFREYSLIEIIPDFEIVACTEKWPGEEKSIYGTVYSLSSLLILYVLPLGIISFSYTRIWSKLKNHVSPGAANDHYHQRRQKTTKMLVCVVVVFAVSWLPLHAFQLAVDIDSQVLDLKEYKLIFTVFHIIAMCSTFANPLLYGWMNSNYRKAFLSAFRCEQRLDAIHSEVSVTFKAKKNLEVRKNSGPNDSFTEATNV

B1: Compound 141 (peptide)
peptide: Isovaleryl-APEK([Ahx-γGlu-C18 diacid])PEEDATPEELQSYYVSLRHYYNWLTRQRY-NH2
SMILES: CC(C)CC(=O)N[C@@H](C)C(=O)N1CCC[C@H]1C(=O)N[C@@H](CCC(=O)O)C(=O)N[C@@H](CCCCNC(=O)CCCCCNC(=O)CC[C@H](NC(=O)CCCCCCCCCCCCCCCCC(=O)O)C(=O)O)C(=O)N1CCC[C@H]1C(=O)N[C@@H](CCC(=O)O)C(=O)N[C@@H](CCC(=O)O)C(=O)N[C@@H](CC(=O)O)C(=O)N[C@@H](C)C(=O)N[C@H](C(=O)N1CCC[C@H]1C(=O)N[C@@H](CCC(=O)O)C(=O)N[C@@H](CCC(=O)O)C(=O)N[C@@H](CC(C)C)C(=O)N[C@@H](CCC(N)=O)C(=O)N[C@@H](CO)C(=O)N[C@@H](Cc1ccc(O)cc1)C(=O)N[C@@H](Cc1ccc(O)cc1)C(=O)N[C@H](C(=O)N[C@@H](CO)C(=O)N[C@@H](CC(C)C)C(=O)N[C@@H](CCCNC(=N)N)C(=O)N[C@@H](Cc1c[nH]cn1)C(=O)N[C@@H](Cc1ccc(O)cc1)C(=O)N[C@@H](Cc1ccc(O)cc1)C(=O)N[C@@H](CC(N)=O)C(=O)N[C@@H](Cc1c[nH]c2ccccc12)C(=O)N[C@@H](CC(C)C)C(=O)N[C@H](C(=O)N[C@@H](CCCNC(=N)N)C(=O)N[C@@H](CCC(N)=O)C(=O)N[C@@H](CCCNC(=N)N)C(=O)N[C@@H](Cc1ccc(O)cc1)C(N)=O)[C@@H](C)O)C(C)C)[C@@H](C)O
B2: Compound 148 (peptide)
peptide: Isovaleryl-APEK([Ahx-γGlu-C18 diacid])PEEDATPEELQRYYVTLRHYYNWLTRQRY-NH2
SMILES: CC(C)CC(=O)N[C@@H](C)C(=O)N1CCC[C@H]1C(=O)N[C@@H](CCC(=O)O)C(=O)N[C@@H](CCCCNC(=O)CCCCCNC(=O)CC[C@H](NC(=O)CCCCCCCCCCCCCCCCC(=O)O)C(=O)O)C(=O)N1CCC[C@H]1C(=O)N[C@@H](CCC(=O)O)C(=O)N[C@@H](CCC(=O)O)C(=O)N[C@@H](CC(=O)O)C(=O)N[C@@H](C)C(=O)N[C@H](C(=O)N1CCC[C@H]1C(=O)N[C@@H](CCC(=O)O)C(=O)N[C@@H](CCC(=O)O)C(=O)N[C@@H](CC(C)C)C(=O)N[C@@H](CCC(N)=O)C(=O)N[C@@H](CCCNC(=N)N)C(=O)N[C@@H](Cc1ccc(O)cc1)C(=O)N[C@@H](Cc1ccc(O)cc1)C(=O)N[C@H](C(=O)N[C@H](C(=O)N[C@@H](CC(C)C)C(=O)N[C@@H](CCCNC(=N)N)C(=O)N[C@@H](Cc1c[nH]cn1)C(=O)N[C@@H](Cc1ccc(O)cc1)C(=O)N[C@@H](Cc1ccc(O)cc1)C(=O)N[C@@H](CC(N)=O)C(=O)N[C@@H](Cc1c[nH]c2ccccc12)C(=O)N[C@@H](CC(C)C)C(=O)N[C@H](C(=O)N[C@@H](CCCNC(=N)N)C(=O)N[C@@H](CCC(N)=O)C(=O)N[C@@H](CCCNC(=N)N)C(=O)N[C@@H](Cc1ccc(O)cc1)C(N)=O)[C@@H](C)O)[C@@H](C)O)C(C)C)[C@@H](C)O
B3: Compound 144 (peptide)
peptide: Isovaleryl-APEK([Ahx-γGlu-C18 diacid])PEEDQTPEELQRYYVSLRHYYNWLTRQRY-NH2
SMILES: CC(C)CC(=O)N[C@@H](C)C(=O)N1CCC[C@H]1C(=O)N[C@@H](CCC(=O)O)C(=O)N[C@@H](CCCCNC(=O)CCCCCNC(=O)CC[C@H](NC(=O)CCCCCCCCCCCCCCCCC(=O)O)C(=O)O)C(=O)N1CCC[C@H]1C(=O)N[C@@H](CCC(=O)O)C(=O)N[C@@H](CCC(=O)O)C(=O)N[C@@H](CC(=O)O)C(=O)N[C@@H](CCC(N)=O)C(=O)N[C@H](C(=O)N1CCC[C@H]1C(=O)N[C@@H](CCC(=O)O)C(=O)N[C@@H](CCC(=O)O)C(=O)N[C@@H](CC(C)C)C(=O)N[C@@H](CCC(N)=O)C(=O)N[C@@H](CCCNC(=N)N)C(=O)N[C@@H](Cc1ccc(O)cc1)C(=O)N[C@@H](Cc1ccc(O)cc1)C(=O)N[C@H](C(=O)N[C@@H](CO)C(=O)N[C@@H](CC(C)C)C(=O)N[C@@H](CCCNC(=N)N)C(=O)N[C@@H](Cc1c[nH]cn1)C(=O)N[C@@H](Cc1ccc(O)cc1)C(=O)N[C@@H](Cc1ccc(O)cc1)C(=O)N[C@@H](CC(N)=O)C(=O)N[C@@H](Cc1c[nH]c2ccccc12)C(=O)N[C@@H](CC(C)C)C(=O)N[C@H](C(=O)N[C@@H](CCCNC(=N)N)C(=O)N[C@@H](CCC(N)=O)C(=O)N[C@@H](CCCNC(=N)N)C(=O)N[C@@H](Cc1ccc(O)cc1)C(N)=O)[C@@H](C)O)C(C)C)[C@@H](C)O
B4: Compound 142 (peptide)
peptide: Isovaleryl-APEK([Ahx-γGlu-C18 diacid])PEEDALPEEIQRYYVSLRHYYNWLTRQRY-NH2
SMILES: CC[C@H](C)[C@H](NC(=O)[C@H](CCC(=O)O)NC(=O)[C@H](CCC(=O)O)NC(=O)[C@@H]1CCCN1C(=O)[C@H](CC(C)C)NC(=O)[C@H](C)NC(=O)[C@H](CC(=O)O)NC(=O)[C@H](CCC(=O)O)NC(=O)[C@H](CCC(=O)O)NC(=O)[C@@H]1CCCN1C(=O)[C@H](CCCCNC(=O)CCCCCNC(=O)CC[C@H](NC(=O)CCCCCCCCCCCCCCCCC(=O)O)C(=O)O)NC(=O)[C@H](CCC(=O)O)NC(=O)[C@@H]1CCCN1C(=O)[C@H](C)NC(=O)CC(C)C)C(=O)N[C@@H](CCC(N)=O)C(=O)N[C@@H](CCCNC(=N)N)C(=O)N[C@@H](Cc1ccc(O)cc1)C(=O)N[C@@H](Cc1ccc(O)cc1)C(=O)N[C@H](C(=O)N[C@@H](CO)C(=O)N[C@@H](CC(C)C)C(=O)N[C@@H](CCCNC(=N)N)C(=O)N[C@@H](Cc1c[nH]cn1)C(=O)N[C@@H](Cc1ccc(O)cc1)C(=O)N[C@@H](Cc1ccc(O)cc1)C(=O)N[C@@H](CC(N)=O)C(=O)N[C@@H](Cc1c[nH]c2ccccc12)C(=O)N[C@@H](CC(C)C)C(=O)N[C@H](C(=O)N[C@@H](CCCNC(=N)N)C(=O)N[C@@H](CCC(N)=O)C(=O)N[C@@H](CCCNC(=N)N)C(=O)N[C@@H](Cc1ccc(O)cc1)C(N)=O)[C@@H](C)O)C(C)C
B5: Compound 149 (peptide)
peptide: Isovaleryl-APAK([Ahx-γGlu-C18 diacid])PEEDASPEESQRYYVSLRHYYNWLTRQRY-NH2
SMILES: CC(C)CC(=O)N[C@@H](C)C(=O)N1CCC[C@H]1C(=O)N[C@@H](C)C(=O)N[C@@H](CCCCNC(=O)CCCCCNC(=O)CC[C@H](NC(=O)CCCCCCCCCCCCCCCCC(=O)O)C(=O)O)C(=O)N1CCC[C@H]1C(=O)N[C@@H](CCC(=O)O)C(=O)N[C@@H](CCC(=O)O)C(=O)N[C@@H](CC(=O)O)C(=O)N[C@@H](C)C(=O)N[C@@H](CO)C(=O)N1CCC[C@H]1C(=O)N[C@@H](CCC(=O)O)C(=O)N[C@@H](CCC(=O)O)C(=O)N[C@@H](CO)C(=O)N[C@@H](CCC(N)=O)C(=O)N[C@@H](CCCNC(=N)N)C(=O)N[C@@H](Cc1ccc(O)cc1)C(=O)N[C@@H](Cc1ccc(O)cc1)C(=O)N[C@H](C(=O)N[C@@H](CO)C(=O)N[C@@H](CC(C)C)C(=O)N[C@@H](CCCNC(=N)N)C(=O)N[C@@H](Cc1c[nH]cn1)C(=O)N[C@@H](Cc1ccc(O)cc1)C(=O)N[C@@H](Cc1ccc(O)cc1)C(=O)N[C@@H](CC(N)=O)C(=O)N[C@@H](Cc1c[nH]c2ccccc12)C(=O)N[C@@H](CC(C)C)C(=O)N[C@H](C(=O)N[C@@H](CCCNC(=N)N)C(=O)N[C@@H](CCC(N)=O)C(=O)N[C@@H](CCCNC(=N)N)C(=O)N[C@@H](Cc1ccc(O)cc1)C(N)=O)[C@@H](C)O)C(C)C
B6: Compound 143 (peptide)
peptide: Isovaleryl-APEK([Ahx-γGlu-C18 diacid])PEEDSTPEELQRYYVSLRHYYNWLTRQRY-NH2
SMILES: CC(C)CC(=O)N[C@@H](C)C(=O)N1CCC[C@H]1C(=O)N[C@@H](CCC(=O)O)C(=O)N[C@@H](CCCCNC(=O)CCCCCNC(=O)CC[C@H](NC(=O)CCCCCCCCCCCCCCCCC(=O)O)C(=O)O)C(=O)N1CCC[C@H]1C(=O)N[C@@H](CCC(=O)O)C(=O)N[C@@H](CCC(=O)O)C(=O)N[C@@H](CC(=O)O)C(=O)N[C@@H](CO)C(=O)N[C@H](C(=O)N1CCC[C@H]1C(=O)N[C@@H](CCC(=O)O)C(=O)N[C@@H](CCC(=O)O)C(=O)N[C@@H](CC(C)C)C(=O)N[C@@H](CCC(N)=O)C(=O)N[C@@H](CCCNC(=N)N)C(=O)N[C@@H](Cc1ccc(O)cc1)C(=O)N[C@@H](Cc1ccc(O)cc1)C(=O)N[C@H](C(=O)N[C@@H](CO)C(=O)N[C@@H](CC(C)C)C(=O)N[C@@H](CCCNC(=N)N)C(=O)N[C@@H](Cc1c[nH]cn1)C(=O)N[C@@H](Cc1ccc(O)cc1)C(=O)N[C@@H](Cc1ccc(O)cc1)C(=O)N[C@@H](CC(N)=O)C(=O)N[C@@H](Cc1c[nH]c2ccccc12)C(=O)N[C@@H](CC(C)C)C(=O)N[C@H](C(=O)N[C@@H](CCCNC(=N)N)C(=O)N[C@@H](CCC(N)=O)C(=O)N[C@@H](CCCNC(=N)N)C(=O)N[C@@H](Cc1ccc(O)cc1)C(N)=O)[C@@H](C)O)C(C)C)[C@@H](C)O

For this assay, the target named is T1, human NPY2 receptor. The assay is described as follows: RLB: displacement of 125I-PYY(1-36) from hNPY2R membranes.
B1 came in with a Ki of 8.17 nM. As for B2, the affinity corresponds to a Ki of 2.85 nM. For B3, the inhibition constant (Ki) amounted to 9.76 nM. Compared with the last molecule, the Ki is about 3.4-fold higher. For B4 the value was 3.97 nM; for B5, 3.97 nM; for B6, 3.42 nM.
